Data reported in patent US20220273789A1.
Where “and” joins values, the source holds several entries; their conditions need not be identical. Equal entries are not always repeated. Where two headings read alike, the source gives them in different places.

Legend:
human IgG (human) [1] = test: BLI Octet, construct on Ni-NTA sensor, hIgG in solution
human IgG (human) [2] = test: BLI (Octet), gEgI on Ni-NTA sensor, hIgG in solution
human IgG (human) [3] = test: as above; remark: listed apart in the source
[4] = molecular target: Human IgG isotype control (ThermoFischer Scientific, ref 12000C) (human); test: BLI, gEgI on Ni-NTA tips, hIgG in solution
human IgG (human) [5] = test: BLI (Octet), His-tagged gEgI immobilised on Ni-NTA sensor, response to human IgG

| Substance | Kd (human IgG (human) [1]) [nM] | Response (nm) (human IgG (human) [1]) | koff (human IgG (human) [1]) [s⁻¹] | kon (human IgG (human) [1]) [M⁻¹ s⁻¹] | Kd (human IgG (human) [2]) [nM] | Response (human IgG (human) [2]) [nm] | further results |
| --- | --- | --- | --- | --- | --- | --- | --- |
| HSV2-gE_A246W R320G_gI (from UniProt P89475 21-416; P06764 21-256) (receptor) | < 0.001 | 0.0639 | < 1e-07 | 3430 | 0.001 | 0.0639 |  |
| HSV2-gE_A246W R320T_gI (from UniProt P89475 21-416; P06764 21-256) (receptor) | < 0.001 | 0.0712 | < 1e-07 | 1510 | 0.001 | 0.0712 |  |
| HSV2-gE_A246W-R320D_gI (from UniProt P89475 21-416; P06764 21-256) (receptor) |  |  |  |  | 0.001 | 0.0712 |  |
| HSV2-gE_A246W_gI (from UniProt P89475 21-416; P06764 21-256) (receptor) | 6910 | 0.231 | 0.00621 | 898 | 6910 | 0.231 |  |
| HSV2-gE_A248G V340W_gI (from UniProt P89475 21-416; P06764 21-256) (receptor) | 39200 | 0.0826 | 0.0107 | 273 | 39200 | 0.0826 |  |
| HSV2-gE_A248K V340W_gI (from UniProt P89475 21-416; P06764 21-256) (receptor) | < 0.001 | 0.0613 | < 1e-07 | 3780 | 0.001 | 0.0613 |  |
| HSV2-gE_A248T F322A_gI (from UniProt P89475 21-416; P06764 21-256) (receptor) | 7010 | 0.167 | 0.00629 | 897 | 7010 | 0.167 |  |
| HSV2-gE_A248T V340M_gI (from UniProt P89475 21-416; P06764 21-256) (receptor) | < 0.001 | 0.108 | < 1e-07 | 4440 | 0.001 | 0.108 |  |
| HSV2-gE_A248T V340W_gI (from UniProt P89475 21-416; P06764 21-256) (receptor) | < 0.001 | 0.0605 | < 1e-07 | 3020 | 0.001 | 0.0605 |  |
| HSV2-gE_A248T_gI (from UniProt P89475 21-416; P06764 21-256) (receptor) | 12200 | 0.123 | 0.00574 | 470 | 12200 | 0.123 |  |
| HSV2-gE_H245A R320D_gI (from UniProt P89475 21-416; P06764 21-256) (receptor) | 6420 | 0.116 | 0.00704 | 1100 | 6420 | 0.116 |  |
| HSV2-gE_H245A R320G_gI (from UniProt P89475 21-416; P06764 21-256) (receptor) | 1410 | 0.192 | 0.00589 | 4190 | 1410 | 0.192 |  |
| HSV2-gE_H245A R320T_gI (from UniProt P89475 21-416; P06764 21-256) (receptor) | 1160 | 0.23 | 0.00537 | 4620 | 1160 | 0.23 |  |
| HSV2-gE_H245D_gI (from UniProt P89475 21-416; P06764 21-256) (receptor) | 17000 | 0.133 | 0.00772 | 453 | 17000 | 0.133 |  |
| HSV2-gE_H245E_gI (from UniProt P89475 21-416; P06764 21-256) (receptor) | 11900 | 0.168 | 0.00705 | 595 | 11900 | 0.168 |  |
| HSV2-gE_H245G R320D_gI (from UniProt P89475 21-416; P06764 21-256) (receptor) | 14200 | 0.0927 | 0.00667 | 469 | 14200 | 0.0927 |  |
| HSV2-gE_H245G R320G_gI (from UniProt P89475 21-416; P06764 21-256) (receptor) | 777 | 0.225 | 0.00407 | 5240 | 777 | 0.225 |  |
| HSV2-gE_H245S R320D_gI (from UniProt P89475 21-416; P06764 21-256) (receptor) | 1740 | 0.121 | 0.00468 | 2690 | 1740 | 0.121 |  |
| HSV2-gE_H245S R320G_gI (from UniProt P89475 21-416; P06764 21-256) (receptor) | 745 | 0.196 | 0.0039 | 5240 | 745 | 0.196 |  |
| HSV2-gE_H245S R320T_gI (from UniProt P89475 21-416; P06764 21-256) (receptor) | 718 | 0.205 | 0.00503 | 7000 | 718 | 0.205 |  |
| HSV2-gE_P318I_gI (from UniProt P89475 21-416; P06764 21-256) (receptor) | 4440 | 0.163 | 0.00752 | 1690 | 4440 | 0.163 |  |

| Substance | Kd (human IgG (human) [1]) [nM] | Response (nm) (human IgG (human) [1]) | koff (human IgG (human) [1]) [s⁻¹] | kon (human IgG (human) [1]) [M⁻¹ s⁻¹] | Kd (human IgG (human) [2]) [nM] | Response (human IgG (human) [2]) [nm] | further results |
| --- | --- | --- | --- | --- | --- | --- | --- |
| HSV2-gE_P318R S338G_gI (from UniProt P89475 21-416; P06764 21-256) (receptor) |  |  |  |  | 0.001 |  | Kd (human IgG (human) [3]): < 0.001 nM; Response (human IgG (human) [3]): 0.177 nm; koff (human IgG (human) [3]): < 1e-07 s⁻¹; kon (human IgG (human) [3]): 8690 M⁻¹ s⁻¹ |
| HSV2-gE_R320E_gI (from UniProt P89475 21-416; P06764 21-256) (receptor) | 4950 | 0.223 | 0.00455 | 919 | 4950 | 0.223 |  |
| HSV2-gE_V340D_gI (from UniProt P89475 21-416; P06764 21-256) (receptor) | < 0.001 | 0.115 | < 1e-07 | 5330 | 0.001 | 0.115 |  |
| HSV2-gE_V340F_gI (from UniProt P89475 21-416; P06764 21-256) (receptor) | < 0.001 | 0.114 | < 1e-07 | 3140 | 0.001 | 0.114 |  |
| HSV2-gE_V340W_gI (from UniProt P89475 21-416; P06764 21-256) (receptor) | < 0.001 | 0.0751 | < 1e-07 | 3520 | 0.001 | 0.0751 |  |
| HSV45 (HSV2- gE_P317R_gI) (from UniProt P89475 21-416; P06764 21-256) (receptor) |  |  |  |  |  |  | Kd (human IgG (human) [3]): 192 nM and 240 nM; Response (human IgG (human) [3]): 0.181 nm and 0.119 nm; koff (human IgG (human) [3]): 0.00137 s⁻¹ and 0.00156 s⁻¹; kon (human IgG (human) [3]): 7110 M⁻¹ s⁻¹ and 6520 M⁻¹ s⁻¹; Kd [4]: 1510 nM; Relative Affinity (%) compared to control construct HSV34 [4]: 8%; koff [4]: 0.00347 s⁻¹; kon [4]: 2340 M⁻¹ s⁻¹ |
| HSV57 (HSV2- gE_P319D_gI) (from UniProt P89475 21-416; P06764 21-256) (receptor) |  |  |  |  |  |  | Kd [4]: 9580 nM; Relative Affinity (%) compared to control construct HSV34 [4]: 1%; koff [4]: 0.00403 s⁻¹; kon [4]: 362 M⁻¹ s⁻¹ |
| HSV58 (HSV2- gE_P319S_gI) (from UniProt P89475 21-416; P06764 21-256) (receptor) |  |  |  |  |  |  | Kd [4]: 116 nM; Relative Affinity (%) compared to control construct HSV34 [4]: 100%; koff [4]: 0.000604 s⁻¹; kon [4]: 5290 M⁻¹ s⁻¹ |
| HSV59 (HSV2- gE_S338D_gI) (from UniProt P89475 21-416; P06764 21-256) (receptor) |  |  |  |  |  |  | Kd [4]: 890 nM; Relative Affinity (%) compared to control construct HSV34 [4]: 13%; koff [4]: 0.00128 s⁻¹; kon [4]: 1550 M⁻¹ s⁻¹ |
| HSV60 (HSV2- gE_N241A_gI) (from UniProt P89475 21-416; P06764 21-256) (receptor) |  |  |  |  |  |  | Kd [4]: 81.9 nM; Relative Affinity (%) compared to control construct HSV34 [4]: 142%; koff [4]: 0.000727 s⁻¹; kon [4]: 8990 M⁻¹ s⁻¹ |
| HSV61 (HSV2- gE_R320D_gI) (from UniProt P89475 21-416; P06764 21-256) (receptor) |  |  |  |  |  |  | Kd [4]: 2400 nM; Relative Affinity (%) compared to control construct HSV34 [4]: 5%; koff [4]: 0.0012 s⁻¹; kon [4]: 514 M⁻¹ s⁻¹ |
| HSV62 (HSV2- gE_N241A-R320D_gI) (from UniProt P89475 21-416; P06764 21-256) (receptor) |  |  |  |  |  |  | Kd [4]: 4200 nM; Relative Affinity (%) compared to control construct HSV34 [4]: 3%; koff [4]: 0.00129 s⁻¹; kon [4]: 317 M⁻¹ s⁻¹ |
| HSV63 (HSV2- gE_N241A-P319D_gI) (from UniProt P89475 21-416; P06764 21-256) (receptor) |  |  |  |  |  |  | koff [4]: < 1e-07 s⁻¹; kon [4]: 3720 M⁻¹ s⁻¹ |
| PN90 (HSV2-gE_gI) (from UniProt P89475 21-416; P06764 21-256) (receptor) |  |  |  |  |  |  | hIgG binding response (human IgG (human) [5]): 0.623 nm |
| PN91 (HSV2-gE_P317R-P319D_gI) (from UniProt P89475 21-416; P06764 21-256) (receptor) |  |  |  |  |  |  | hIgG binding response (human IgG (human) [5]): 0.0658 nm |
| PN92 (HSV2-gE_P317R-R320D_gI) (from UniProt P89475 21-416; P06764 21-256) (receptor) |  |  |  |  |  |  | hIgG binding response (human IgG (human) [5]): 0.056 nm |
| PN93 (HSV2-gE_P319D-R320D_gI) (from UniProt P89475 21-416; P06764 21-256) (receptor) |  |  |  |  |  |  | hIgG binding response (human IgG (human) [5]): 0.0658 nm |
| PN94 (HSV2-gE_Δ319-320_gI) (from UniProt P89475 21-416; P06764 21-256) (receptor) |  |  |  |  |  |  | hIgG binding response (human IgG (human) [5]): 0.115 nm |
| PN95 (HSV2-gE_P317G-P318G_Δ319-320_gI) (from UniProt P89475 21-416; P06764 21-256) (receptor) |  |  |  |  |  |  | hIgG binding response (human IgG (human) [5]): 0.0748 nm |
| PN96 (HSV2-gE_P318E_Δ319-320_gI) (from UniProt P89475 21-416; P06764 21-256) (receptor) |  |  |  |  |  |  | hIgG binding response (human IgG (human) [5]): 0.0619 nm |
